Reference: patent US20170165373A1

Biological target: human BCMA (huBCMA), full length, on cells (human) (UniProt Q02223)
Test: cell-based or functional assay

Chain of human BCMA (huBCMA), full length, on cells (human) (Q02223 whole entry N81S): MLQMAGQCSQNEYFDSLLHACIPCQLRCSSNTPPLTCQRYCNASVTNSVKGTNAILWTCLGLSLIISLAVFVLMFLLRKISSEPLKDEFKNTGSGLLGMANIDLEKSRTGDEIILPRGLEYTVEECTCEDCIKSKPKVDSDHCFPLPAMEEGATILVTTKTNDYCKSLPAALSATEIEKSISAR

B1: 29C12-MCC-DM1 (antibody drug conjugate) (protein)
VH: EVQLLESGGALVQPGGSLRLSCAASGFTFSSYAMNWVRQAPGKGLEWVSAISVGGDTYYADSVKGRFTISRDNSKNTLYLQMNSLRAEDTAVYYCAKDQVTMVRGVWYYYGLDVWGQGTTVTVSS
VL: DIVMIQSPLSLPVTPGEPASISCRSSQSLLHSNGNNYLDWYLQKPGQSPHLLISLGSNRTSGVPDRFSGSGSGTDFTLKISRVEAEDVGVYYCMQALQPPRRFGQGTKLEIKR
Binder B1 has an H929 cell growth inhibition IC50 (CellTiter-Glo, 96 h) of 0.39 nM.
